From the DeepSol protein solubility set

Assay: soluble on expression in E. coli; label from the status in PepcDB or PDB records

| Sequence | soluble on expression in E. coli |
| --- | --- |
| MGTAAERWERAQMFFDAKDYAVAARILDGLVDEVPEQTGPRLLLARSYYHSAQLGRAEAELRILVERDPVEHYARLMLGRTLQRQGRDDEADSQLRIASALAGLEHHHHHH | not soluble |
| MGSDKIHHHHHHMAFKTPLADRMRPQSLEQMVGQQDLLKAGQPLRQIIDQHVNIPLILWGPPGTGKTSLAQIIASQDDYPFVAFNASTENKAQLTKAIAQYPEQSFVLLIDEIHRMTKTLQDFLLPYLENGHVMLIGSTTENPIMSIVPAIRSRCQIFEFQPLSDTDIEIALRRAVTDIYNLTDDQVDAKALNLIAISAEGDLRIALNILETLHAIDQKQITVAAVQHFAQQQHFSYDRKATKHYDYLSAYSDSMAGSDTDAALYYLTILLKNDDLPSVVRRLREIPYTYIGLANPEQVTQIVVAANQAEKIGMPKAKYPLMFATMLMCISPKSGSFDQSWEKLDQDTQNPSQHPMPRGLRDMHYKHSEEITGGGLIDNPFQMPHQIAQQNYMPKGLAGRRYYYPKDNENERKLGAQYLKLHRFIYNEDYHE | not soluble |
| MKLFHRITISLSEDDMKLIEELRRDSGDSLSKIFREAIQLYYNLLKASKAAGVDFRKYFANATRLAFHINGVEQKQFAVIDREIYRVMLKKLQEKVPPESIESDEEFRSAVAGVVKLFEITRDRWSEYTDEQKLEEILTTMEFAGAGTFARVGDKEYIFNTYAESTAITKLIISSVLASAGLKVEIDHTPGKIFIRL | not soluble |
| MSNTLFDDIFQVSEVDPGRYNKVCRIEAASTTQDQCKLTLDINVELFPVAAQDSLTVTIASSLNLEDTPANDSSATRSWRPPQAGDRSLADDYDYVMYGTAYKFEEVSKDLIAVYYSFGGLLMRLEGNYRNLNNLKQENAYLLIRR | soluble |
| MPSTADTVEVDFITPRHLAGGGDPAWITVPLHRACGWSHGHDPLMPRALLSSPDQKALLRLEPDPDGQWWTLNHTAESGRPAWYASFGARTPVELIAAFTDALTAPAPPTDAPCDPFEPLRQIAWSAPAVGADGLVSPDGTAYVQRQGSADGPGAWFVTVTLGPRPVWQARFDAHTPEHLVAAFTTALADPKPALRTDSGRSLPTRNPNVVTRKTTDVLAVDIAGALEERVQTLTTRHPLPPANPMPPTPPPTRHGRSRLEHHHHHH | soluble |
| MEIIIVGGFLGSGKTTTLNHLITDALDHNLKTALIINEFGKMSVDSQLIHPTIPISEIVEGCICCAMKSNVSQQLHEIYLEHQPDLVFIECSGIAEPLAVVDACLTPVLAPITTIRSMLGIIDAKLYEKIETYPRDIQALFYEQLSYCSTLFVNKIDIADFNQVARLLRHLEVINRDANIQVGQWGELALNTLLNVKHLDAKQRGTLHHAINHQLIDTPRSQTKADFIERLTQLPQQVYRVKGFVRFTDSKLIHLVQYAEGEIELTPIQFKSDVPLYLVVIGKHLDAIELDLLEHHHHHH | not soluble |
| MGSDKIHHHHHHMTEGKSMFVGFDYGSANCAIGVMIDDAVSLLPLSTHSDFMPSTLYAMDRELIAEAVYQGLPEHLKAEYSHLRSSQLMRAKLMRHELDLSPNEQAVFVGQAAIDAYLDMPEEGFYVRSPKSFLGANGLRVEQIALFEDIVTLMMQHVKTLADKALNAKSLSSASHAVIGRPVNFQGIGGEDSNQQAETILRLAATRSGFTDVRFLFEPLAAGMDFESNLSDDNTVLVVDVGGGTTDCSVVKMGPSYIKQQDRSPDCFGHSGQRIGGNDLDIALAMTGLMPSFGADTLMINGKPMPRTPFWNAVAVNDISAQRDFVSLPSRKLVEQLIKEAQQPELLVRLQKVQKNQMSYQVVREAEAAKISLSDNDTIQCSLDFIEKGLLVPLTAAQFEQAINDPLAKVEALMKQAMQTATAKAEQQDCDMPTTPDIVYVTGGTARSPAIYNKIASVYPNAKVVVGDHFGSVTAGLTRCAEKCL | not soluble |
| MVTRITGLASGMDIDDIVSKLMQTERAPLDKLTQKKQTLEWQRDSYREVNSKIKELQDYMSKNTLTYPSTYQSKTVTSSNESVLTATGSVSAPNSSSTVEVASLATAATYKANNYTGYTQGDYNLAFNVVAPGETTAKTVNISVTSADTIDNVISKLNSSDLGVSAFKDKIWNGTEYVETIAFSSKATGAGGSIQAADSATADFMSGQLGFSLDADNKLTAYKEGTNAKVTINGFEMEKLTNNFTVNGVTYSIKNTTAATGPVTTSVSTDVDGIYNQIKEFVDKYNELVDSLNEKLKEEKYRDYTPLTSEQKEAMSDKEVELWEEKAKSGLLRNDSSISTGTNQMRTDFYTQVNADGKTYQLTEFGITTSSAYQLRGHLEINEEKLKAKIAEDPQGVANLFTSGTNDSNYSDKGIMKRITNTLRSTVKSIEAKAGNSTMGASSYSIGKNLNSISTEITDMQDRLNTIENRYYSKFSAMDSAIQKMNEQASYLSQLLVQ | not soluble |
| MKELKQAEQIRTWVQSILTDESSGHDWHHVSRVADLAAYIGEKEKADLFIVETAALVHDLIDVKLPDTVRLSVSEVYDQLVFFGVGKENADRVIHIITRMSFRDRGKLAKEPLSIEGKAVQDADRLDAIGAVGIARAFMFAGAKGHGLYGDEQSAYAHFFHKLLRLKDMMNTDTARELAEERHNFMLQFVRQLEKDIPGIDAETS | not soluble |
| MGSDKIHHHHHHAAVNRVGMGSSWRAGVKVGVGVSYQFEPGWIGLKSGLYYANRGYSLGDYPRTTESATYVLKEMMTGGITQHFLQLPVMADFSWKVSKEVRMHLAVGMYAGVSVKNDTNWGSSFTMGYSKEPQALGKYVKSTGLGYSYGYGHSGYDEAENADHPFRDVNSFDWGLTTSFGIEVNNWVMNLGYDLSLGDEGGNYKIDGDNFSLYEVRSVGANYNTMSLTVGYKFKL | not soluble |
| GASALSLSLLSISRSGNTVTLIGDFPDEAAKAALMTALNGLLAPGVNVIDQIHVDPVVRSLDFSSAEPVFTASVPIPDFGLKVERDTVTLTGTAPSSEHKDAVKRAATSTWPDMKIVNNIEVTGQAPPGPPA | soluble |
| MSLKPEEIVEGLLSGNRRALARAITYVENEYPESKEIMRQIFAKTGRAHVVGLTGFPGVGKSTLVSKLTEEFRRRGKKVGIIAIDPGSPFTGGALLGDRLRLDGMDSRKQLWTDPGIFFRSMSSRGRAGGLAAKTGDVVRLLDAFGFDVILVETVGAGQSEVDIIEVADTSVVVMMPETGDEIQVNKAGILEIGDIYVVNKADLGGAEKVERWLRYMLSLDEESVQMLSQMTHADEARVQSGEFFERRKGWNPPVIKTVADRGEGIKELADAIEEHFDYMKKTGLIEKRRRERVKRELFEIVMNDVIKLVKEKTNYRDLLVKLLKGETDPYTAAEQIVEEVIHNAGKGEGHHHHHH | soluble |
| MSIEQTLSQYLPSHPKPQGVTFTYGTAGFRMKADKLDYVTFTVGIIASLRSKYLQGKTVGVMITASHNPPEDNGVKVVDPLGSMLESSWEKYATDLANASPSPSNDSEGEKNSLVEVIKNLVSDLKIDLSIPANVVIARDSRESSPALSMATIDGFQSVPNTKYQDFGLFTTPELHYVTRTLNDPDFGKPTEDGYYSKLAKSFQEIYTICESNNEKIDITIDAANGVGAPKIQELLEKYLHKEISFTVVNGDYKQPNLLNFDCGADYVKTNQKLPKNVKPVNNKLYASFDGDADRLICYYQNNDNKFKLLDGDKLSTLFALFLQQLFKQIDPTKISLNIGVVQTAYANGSSTKYVEDVLKIPVRCTPTGVKHLHHEAENFDIGVYFEANGHGTVIFNPEAEKKIFDYKPNNDNEAKAIKVLQNFSQLINQTVGDAISDLLAVLIVVHYLKLSPSDWDNEYTDLPNKLVKVIVPDRSIFKTTNAERTLVEPKGMQDEIDKLVAQYPNGRSFVRASGTEDAVRVYAEADTQNNVEELSKAVSELVK | soluble |
| MLRTYFPEVVLFLHAFPLNKEMYRYQFCAFEEEGIPYVALDYPGFGDAPNLPGEYTVERLTDYVVNELRKFRVKKVIPIGDSMGGYIMFDMWRRYREMIKGFVFVATRAEADTEEGKKARYALIEKVQKEGKEFLIEAMLENQTSPATKKDENKMRTLRCIMEKATREGIVKTLKALAERKDNTDLLPSIDVPTLVIAGKDDERVTPPEIVKKIAEGIKGAKYYELENSAHLPPFENPEKFNEVVIPFVKDLLKTP | soluble |
| MGSDKIHHHHHHMSDLTVNDGSYQQLLDRIGECLALGQQRSFEQVNSVLVETYWQIGRYIVEFEQAGKERAEYGSKLLQVLSRDLKAAYGKGFSRSNLQYMRLFYLNYENCQTLSGKLSWSHYTELLAISDDLARSFYEQQCIQDRWSVRELKRQKDSALFERVALSKDRAEILALAKDGQRIESARDVVKDPYVFEFLDLPDRNYRESELENRLIAELEKFLLELGKGFAFIGQQYRITLNNTHFFVDLVFYHRILKCFVLIDLKTRAVSHQDIGQMNMYLNYFRAEENMEDDNEPIGIVLARDKDEILVEYAKGGISNQLFVSRYQLYLPDPEVLKQELKRLLSVNDG | not soluble |
| MTTKRIDRDLPSSDDPSSAKRRIEFPEETLENDGAAAIKLLSLLLQCAEYVATDHLREASTLLSEISEICSPFGSSPERVVAYFAQALQTRVISSYLSGACSPLSEKPLTVVQSQKIFSALQTYNSVSPLIKFSHFTANQAIFQALDGEDSVHIIDLDVMQGLQWPALFHILASRPRKLRSIRITGFGSSSDLLASTGRRLADFASSLNLPFEFHPIEGIIGNLIDPSQLATRQGEAVVVHWMQHRLYDVTGNNLETLEILRRLKPNLITVVEQELSYDDGGSFLGRFVEALHYYSALFDALGDGLGEESGERFTVEQIVLGTEIRNIVAHGGGRRKRMKWKEELSRVGFRPVSLRGNPATQAGLLLGMLPWNGYTLVEENGTLRLGWKDLSLLTASAWKSQPFD | soluble |
| MKKVLLTLSLSIVASMGSFAQNEPYKNPKLTPEERAEDLLGRLTLKEKIGLMKNSSFAVERLGVAPYNWWSEALHGVARNGLATVFPITMGMASTFDDEAIERVYVAVSDEGRAKFHDAHRSNRYGYGNEGLTFWNPNVNIFRDPRWGRGQETFGEDPYLTTRMGVAVVKGMQGPADAEYDKAHACVKHYAVHSGPEAKRHSFDVEDLSPRDLWETYLPAFKALVQEADVKEVMCAYQRLEGEPCCDSNRLLTQILRDEWGYKHLVVSDCGAIDDFFVKGRHETHKDAADASASAVINGTDLECGSIYSHLEEAVKQGLITEERIDTSLRRLLKARFALGEMDP | not soluble |
| SLERSQVFNILRMMPKGAALHLHDIGIVTMDWLVRNVTYRPHCHICFTPRGIMQFRFAHPTPRPSEKCSKWILLEDYRKRVQNVTEFDDSLLRNFTLVTQHPEVIYTNQNVVWSKFETIFFTISGLIHYAPVFRDYVFRSMQEFYEDNVLYMEIRARLLPVYELSGEHHDEEWSVKTYQEVAQKFVETHPEFIGIKIIYSDHRSKDVAVIAESIRMAMGLRIKFPTVVAGFDLVGHEDTGHSLHDYKEALMIPAKDGVKLPYFFHAGETDWQGTSIDRNILDALMLNTTRIGHGFALSKHPAVRTYSWKKDIPIEVCPISNQVLKLVSDLRNHPVATLMATGHPMVISSDDPAMFGAKGLSYDFYEVFMGIGGMKADLRTLKQLAMNSIKYSTLLESEKNTFMEIWKKRWDKFIADVATK | soluble |
| MTDYLADVQKYDSSADEAVVNKIVRHLGIALRNKDSALVSASDPKELERVREKWCEKKLGVGGSDADAAIAATAKAMADDRSKSRVTFYYLVAKNLGKLQTL | not soluble |
